In publication PMC8262405 (Molecular cell, 2021):

T1: GFP-Rad55-Rad57 complex (His6-GFP-Rad55 and FLAG-Rad57) (S. cerevisiae, UniProt P38953 1-406; P25301 1-460)
T1 sequence (looked up) 1: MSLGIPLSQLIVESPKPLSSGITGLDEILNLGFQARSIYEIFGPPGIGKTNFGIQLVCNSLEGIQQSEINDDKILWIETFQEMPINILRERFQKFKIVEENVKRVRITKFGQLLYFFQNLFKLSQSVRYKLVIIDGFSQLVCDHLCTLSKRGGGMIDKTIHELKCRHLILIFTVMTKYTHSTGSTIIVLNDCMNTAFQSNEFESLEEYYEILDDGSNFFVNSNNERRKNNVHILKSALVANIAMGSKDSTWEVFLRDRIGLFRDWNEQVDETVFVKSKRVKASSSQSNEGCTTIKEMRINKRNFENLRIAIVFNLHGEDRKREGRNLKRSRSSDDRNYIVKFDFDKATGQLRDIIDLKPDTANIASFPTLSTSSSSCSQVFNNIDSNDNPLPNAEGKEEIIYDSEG
T1 sequence (looked up) 2: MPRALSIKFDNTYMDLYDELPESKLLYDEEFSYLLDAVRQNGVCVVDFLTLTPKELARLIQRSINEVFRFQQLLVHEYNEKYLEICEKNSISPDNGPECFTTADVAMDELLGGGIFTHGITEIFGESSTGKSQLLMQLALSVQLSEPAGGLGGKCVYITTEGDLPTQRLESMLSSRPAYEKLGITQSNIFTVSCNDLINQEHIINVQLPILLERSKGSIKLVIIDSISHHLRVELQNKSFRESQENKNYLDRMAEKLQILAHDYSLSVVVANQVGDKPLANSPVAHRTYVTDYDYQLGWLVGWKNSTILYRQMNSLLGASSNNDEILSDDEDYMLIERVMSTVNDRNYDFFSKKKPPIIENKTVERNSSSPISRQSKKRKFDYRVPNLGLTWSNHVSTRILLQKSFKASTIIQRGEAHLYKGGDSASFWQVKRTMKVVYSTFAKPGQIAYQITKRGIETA

B1: Rad51 (natural protein, S. cerevisiae, UniProt P25454 1-400, looked up)
chain: MSQVQEQHISESQLQYGNGSLMSTVPADLSQSVVDGNGNGSSEDIEATNGSGDGGGLQEQAEAQGEMEDEAYDEAALGSFVPIEKLQVNGITMADVKKLRESGLHTAEAVAYAPRKDLLEIKGISEAKADKLLNEAARLVPMGFVTAADFHMRRSELICLTTGSKNLDTLLGGGVETGSITELFGEFRTGKSQLCHTLAVTCQIPLDIGGGEGKCLYIDTEGTFRPVRLVSIAQRFGLDPDDALNNVAYARAYNADHQLRLLDAAAQMMSESRFSLIVVDSVMALYRTDFSGRGELSARQMHLAKFMRALQRLADQFGVAVVVTNQVVAQVDGGMAFNPDPKKPIGGNIMAHSSTTRLGFKKGKGCQRLCKVVDSPCLPEAECVFAIYEDGVGDPREEDE

Legend:
[1] = target: T1, GFP-Rad55-Rad57 complex (His6-GFP-Rad55 …); test: single-molecule ssDNA curtain
Rad51 = target: B1; test: single-molecule ssDNA curtain

koff [1] [s⁻¹]	binding result (Rad51)	Binder
0.00758		B1
0.0058		Rad51-K191R (natural protein, S. cerevisiae, UniProt P25454 1-400, looked up) MSQVQEQHISESQLQYGNGSLMSTVPADLSQSVVDGNGNGSSEDIEATNGSGDGGGLQEQAEAQGEMEDEAYDEAALGSFVPIEKLQVNGITMADVKKLRESGLHTAEAVAYAPRKDLLEIKGISEAKADKLLNEAARLVPMGFVTAADFHMRRSELICLTTGSKNLDTLLGGGVETGSITELFGEFRTGRSQLCHTLAVTCQIPLDIGGGEGKCLYIDTEGTFRPVRLVSIAQRFGLDPDDALNNVAYARAYNADHQLRLLDAAAQMMSESRFSLIVVDSVMALYRTDFSGRGELSARQMHLAKFMRALQRLADQFGVAVVVTNQVVAQVDGGMAFNPDPKKPIGGNIMAHSSTTRLGFKKGKGCQRLCKVVDSPCLPEAECVFAIYEDGVGDPREEDE
	binds	Hed1-GFP (natural protein, S. cerevisiae, UniProt Q03937 1-162, looked up) MQQRSNRRSCSYIPLGVHNNAEKSLCTEVAPARKNKRSITTSPIVNINVVERRLFNLELEKQQLRAKNLSENTGGGSPNGGAYLDAKKGVREQDQYQGGPSKELDRLQPPPSMKKSPPRKKKSLKDLIYETNKTFYQVDSNKVKYKVGLSKKQLLPSKTVDN
